# According to patent publication US20130280807A1, “CELL CULTURE CHAMBER, METHOD FOR PRODUCING SAME, TISSUE MODEL USING CELL CULTURE CHAMBER, AND METHOD FOR PRODUCING SAME” (priority 2010, published 2013):
# B1: NGF: NGF (upstate #01-125; 5 ng/ml) added to culture medium, acting on PC-12 cells (protein, UniProt P01139 122-241, looked up)
# Beta-nerve growth factor: SSTHPVFHMGEFSVCDSVSVWVGDKTTATDIKGKEVTVLAEVNINNSVFRQYFFETKCRASNPVESGCRGIDSKHWNSYCTTTHTFVKALTTDEKQAAWRFIRIDTACVCVLSRKATRRG
# modifications: Beta-nerve growth factor
# notes: NGF (upstate #01-125; 5 ng/ml) added to culture medium, acting on PC-12 cells
# Test system: PC-12 cells
# Experiment: Neurite extension of PC-12 cells by the effect of NGF through membrane
# Type: cell-based
# Details: 2 days
# Method: The vitrigel chamber was hung and held in the container (FIGS. 5, (A) and (B)), and PC-12 cells suspended in a culture medium [Dulbecco's modified Eagle's culture medium (GIBCO BRL #11885-084) containing 10% inactivated fetal bovine serum (Sigma #F2442), 20 mM HEPES (GIBCO BRL #15630), 100 units/ml penicillin, and 100 μg/ml streptomycin] were seeded in 2.5×10^3 cells/cm^2 in the vitrigel chamber. A culture medium (1.2 ml), either containing NGF (upstate #01-125; 5 ng/ml) or by itself, was also injected into the container (FIG. 13).
# The same experiment was conducted with the commercially available collagen membrane chamber (Koken; permeable collagen membrane #CM-24 for cell culture).
molecule,measurement,setting,value
B1,"neurite extension of PC-12 cells (cell morphology, phase-contrast microscope)","commercially available collagen membrane chamber (Koken #CM-24), NGF in container",neurite extension was not confirmed
same,"neurite extension of PC-12 cells (cell morphology, phase-contrast microscope)","vitrigel chamber, NGF 5 ng/ml in culture medium in container, acting through vitrigel membrane",neurite extension was confirmed
